One may read the Km as the concentration of substrate that gives half-maximal velocity. In general, Kd refers to the equilibrium constant for the complex coming apart.

This passage reports Km and Kd results from publication PMC6715182, “Helicobacter pylori senses bleach (HOCl) as a chemoattractant using a cytosolic chemoreceptor” (PLoS Biology, 2019).

Data set [1] relates to Nc1ncnc2c1ncn2[C@@H]1O[C@H](COP(=O)(O)OP(=O)(O)OP(=O)(O)O)[C@@H](O)[C@H]1O. The data set is described as follows: purified protein. The note with it: Mg2+ ([…] MgCl2).
The target in a further data set is CheW (Escherichia coli) (UniProt P0A964). The note with it: cited from earlier work.
Data set [2] deals with Helicobacter pylori transducer-like protein D lacking the N-terminal His tag, TlpD(-His) (Helicobacter pylori (SS1 strain)) (UniProt B5Z6X0). The data set is described as follows: AUC; interference experiments, 3 x 28 uM TlpD(-His) in PBS (pH 7), 1 mM TCEP, 20 C, 55,000 rpm; KD from the integrated monomer and dimer peaks; dimer to monomers.

Sequence of CheA (P07363 whole entry): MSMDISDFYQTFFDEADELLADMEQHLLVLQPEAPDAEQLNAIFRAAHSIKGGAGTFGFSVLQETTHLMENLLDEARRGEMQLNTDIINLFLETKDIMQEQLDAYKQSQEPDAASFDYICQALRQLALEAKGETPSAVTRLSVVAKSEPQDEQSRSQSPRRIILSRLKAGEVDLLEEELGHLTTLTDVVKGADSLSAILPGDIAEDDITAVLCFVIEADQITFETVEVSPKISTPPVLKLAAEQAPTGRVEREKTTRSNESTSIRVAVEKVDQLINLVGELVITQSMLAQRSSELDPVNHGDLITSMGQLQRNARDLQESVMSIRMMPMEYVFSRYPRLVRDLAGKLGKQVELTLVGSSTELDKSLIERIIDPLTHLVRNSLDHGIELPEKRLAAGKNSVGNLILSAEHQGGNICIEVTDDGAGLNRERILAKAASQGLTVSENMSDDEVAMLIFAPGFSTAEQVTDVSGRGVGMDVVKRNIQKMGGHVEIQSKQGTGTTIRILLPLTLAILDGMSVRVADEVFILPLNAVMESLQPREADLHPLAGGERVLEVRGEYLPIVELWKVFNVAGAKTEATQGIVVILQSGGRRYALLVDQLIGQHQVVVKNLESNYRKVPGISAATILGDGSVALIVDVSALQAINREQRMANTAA

Regarding CheA (Helicobacter pylori G27), in data set [1], the Km stood at 136 µM.

For CheA (from UniProt P07363), the Kd in the data set with CheW (Escherichia coli) was 17 µM. In turn, “Helicobacter pylori transducer-like protein D lacking the N-terminal His tag, TlpD(-His) (from UniProt B5Z6X0 1-433) (receptor)” came in with a dissociation constant Kd in data set [2] of 0.0657 µM.
